# US20260152569A1, “ANTI-GPC1 MONOCLONAL ANTIBODY, THERAPEUTIC AND DIAGNOSTIC USES THEREOF” (CENTRO DI RIFERIMENTO ONCOLOGICO DI AVIANO, priority 2022, published 2026)
# Several values for one entry are separate records, joined by “and”; a condition that tells them apart may be missing. Equal values may be shown once.
# Columns and labels:
# [1] = system: BXPC3 tumor; assay: Therapeutic effect of doxorubicin-loaded chitosan nanobubbles in BXPC3 mouse model
# Description: The amount of doxorubicin loaded nanobubbles used for the treatments in each group corresponded to 2 mg/kg per week of doxorubicin for each different treatment modality. Data are represented as mean±SD.
# P-value was calculated using the log-rank test. Colored areas correspond to 95% confidence interval.
# The survival data from the four treatments were evaluated by Kaplan-Meier curves to compare each treatment with one at time of the others. […] P-value was calculated using the log-rank test. Colored areas correspond to 95% confidence interval.
# The study started when the subcutaneous BXPC3-tumor reached a volume of 75 mm^3. The humanitarian endpoints that had caused the euthanasia of mice were: one tumor dimension greater than 12 mm or ulceration of the tumor. Four groups of mice were tested: a first group of animals treated with doxo-CS NBs-C (n=6); a second group of animals treated with doxo-CS NBs (n=6); a third group of control animals treated with doxorubicin (doxo 2 mg/kg) in order to treat mice at the same concentration (2 mg/kg for a week) (n=10); a fourth group of control animals treated with PBS solution (n=8).
# Mice survival was evaluated using Kaplan-Meier curves and the p-value was calculate using log rank test.
# [2] = system: GPC1 protein; assay: Flow cytometry analysis of GPC1 expression in cell lines; type: cell-based, human; details: JURKAT cell line (complete absence of GPC1 protein)
# Description: (§1) Remarkably, the same expression pattern as flow cytometry analysis was obtained by immunofluorescence analysis with anti-GPC1 C. […] Thus, the results of immunofluorescence analysis confirmed the ability of anti-GPC1 C to detect the GPC1 protein that was observed when flow cytometry was performed (FIGS. 1A, 1B). • c) Anti-GPC1 C was also shown to specifically recognize GPC1 protein in GBM tissue samples from surgical resection.
# [3] = system: GPC1 protein; assay: Immunofluorescence of GPC1 protein in cell lines; type: cell-based, human; details: JURKAT cells
# Description: as §1
# [4] = molecular target: T1, GPC1 protein (Homo sapiens, UniProt P35052); assay: Immunofluorescence of GPC1 protein in BXPC3 xenograft tumor masses and mouse organs; design: species or system athymic nude mice; details: tumor masses of BXPC3 xenografts
# T1 construct: in tumor masses of xenografts obtained by subcutaneous injection of BXPC3 into athymic nude mice; from tissue; host or cells: BXPC3 xenograft tumour masses from athymic nude mice; organs of the same mice as negative control
# T1 sequence (P35052 24-530 limits assumed): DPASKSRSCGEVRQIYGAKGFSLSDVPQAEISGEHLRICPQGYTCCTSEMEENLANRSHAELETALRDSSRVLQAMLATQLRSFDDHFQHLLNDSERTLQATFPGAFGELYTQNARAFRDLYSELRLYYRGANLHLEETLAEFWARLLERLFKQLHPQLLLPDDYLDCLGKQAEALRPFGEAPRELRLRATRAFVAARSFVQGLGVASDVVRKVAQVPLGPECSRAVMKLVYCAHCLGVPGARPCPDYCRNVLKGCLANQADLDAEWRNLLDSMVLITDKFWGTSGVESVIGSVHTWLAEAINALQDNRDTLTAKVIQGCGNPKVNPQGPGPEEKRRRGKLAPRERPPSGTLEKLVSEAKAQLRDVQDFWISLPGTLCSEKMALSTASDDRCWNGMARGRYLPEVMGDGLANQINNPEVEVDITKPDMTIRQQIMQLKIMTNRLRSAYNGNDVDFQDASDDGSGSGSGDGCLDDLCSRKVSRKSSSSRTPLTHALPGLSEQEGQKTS
# Description: (§2) Scale bar corresponds to 25 μm.
# as §1
# [5] = system: GPC1 protein; assay: as above; design: species or system athymic nude mice; details: organs of the xenograft mice
# Description: as §2, §1
# [6] = system: BXPC3 tumor mass; assay: In vivo and ex vivo biodistribution of Cy5.5-conjugated anti-GPC1 C in BXPC3 xenograft mice; design: species or system athymic nude mice
# Description: Whole-body scan of a representative mouse in prone and supine position is shown. […] Green circles enclose the tumor mass.
# Data are reported as average efficiency mean±SD (n=4). P-value was calculated using the t-test, for the t-test, anti-GPC1 C was used as reference for each time point. ns: ≥0.05; *: 0.05<p≤0.01; **: 0.01<p≤0.001.
# Data are reported as mean±SD (n=4). P-value was calculated using the t-test. ns: ≥0.05.
# Blue represents nuclei and green represents IgMs. Scale bar corresponds to 25 μm.
# Specifically, in vivo time course experiments with signal detection from 0 to 96 hours and signal evaluation every 24 hours were performed to evaluate the ability to target tumor mass and the overall biodistribution of anti-GPC1 C when injected into the mouse tail vein after conjugation with Cy5.5 for detection using the VIVOVISION IVIS®Lumina (Xenogen) in vivo imaging device (FIGS. 5A, B, C, D, E, F, G).
# [7] = system: BXPC3 tumor
# Description: Experimental endpoint was set up at day 50. Untreated mice (orange line) were used as controls. Data were visualized using Kaplan-Meier analysis, p-value of 0.00016 was calculated using the log rank test.
# Data are represented as mean±standard error (SE).
# The treatment procedure started when the tumor reached a volume of 75 mm^3, and when possible, it was stopped at day 42. For mice reaching the day 42, the final experimental endpoint was set up at day 50 from the beginning of the treatment procedure.
# [8] = molecular target: T2, GPC1 protein (Homo sapiens, UniProt P35052); assay: Immunofluorescence of GPC1 protein in cell lines; type: cell-based; design: endogenous in cells; host or cells: BXPC3, U87MG, T98G (GPC1-expressing); details: BXPC3, U87MG and T98G cell lines
# T2 sequence (P35052 24-530): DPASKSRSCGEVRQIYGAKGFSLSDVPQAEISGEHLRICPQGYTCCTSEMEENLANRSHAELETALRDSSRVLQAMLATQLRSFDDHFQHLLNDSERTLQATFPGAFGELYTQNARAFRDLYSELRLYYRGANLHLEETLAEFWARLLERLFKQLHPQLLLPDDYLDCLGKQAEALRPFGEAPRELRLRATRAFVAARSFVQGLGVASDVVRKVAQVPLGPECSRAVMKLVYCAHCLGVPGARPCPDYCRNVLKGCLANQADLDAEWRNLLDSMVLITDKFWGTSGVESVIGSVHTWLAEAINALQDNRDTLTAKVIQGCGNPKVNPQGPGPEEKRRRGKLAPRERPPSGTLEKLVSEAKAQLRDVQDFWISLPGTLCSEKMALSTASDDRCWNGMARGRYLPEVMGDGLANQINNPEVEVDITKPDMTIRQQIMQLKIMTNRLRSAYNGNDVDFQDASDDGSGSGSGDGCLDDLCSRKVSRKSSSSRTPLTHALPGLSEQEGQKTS
# Description: as §1
# [9] = molecular target: T2, GPC1 protein; assay: Flow cytometry analysis of GPC1 expression in cell lines; type: cell-based; design: endogenous in cells; host or cells: BXPC3, U87MG, T98G (GPC1-expressing); JURKAT (no GPC1); details: GPC1-expressing BXPC3, U87MG and T98G cell lines
# Description: as §1
# [10] = system: BXPC3 tumor mass; assay: Complement-dependent cytotoxicity in BXPC3 tumor mass (hematoxylin-eosin, immunofluorescence); details: compared with murine IgM pool or PBS
# Description: The nuclei are stained in purple, the cytoplasm is stained in pink.
# Blue represents nuclei and green represents the signal related to the immunological cell biomarkers (CD14 and CD56, respectively).
# Blue represents nuclei and green represents the signal related to the complement system effectors (C1q, C3, C9, respectively).
# To better characterize the source of cell death, the presence of complement system effectors, but also the recruitment of macrophages, and NK cells was also analyzed by immunofluorescence analysis (FIGS. 7A, 7B).
# In particular, the involvement of the complement system was investigated, by analyzing C1q, C3 (C3b, iC3b, C3c), and C9.
# [11] = molecular target: T2, GPC1 protein; assay: Immunofluorescence of GPC1 protein in GBM, liver and lung tissue; design: specifically recognize GPC1 protein in GBM tissue samples from surgical resection; from tissue; host or cells: glioblastoma (GBM) tissue from surgical resection; healthy liver and lung tissue
# Description: Scale bar corresponds to 50 μm.
# as §1
# [12] = i.v., Cy5.5 conjugate, in vivo imaging
# [13] = 7 mice, i.p. 38 micrograms twice a week
molecule,measurement,setting,value
"COc1cccc2c1C(=O)c1c(O)c3c(c(O)c1C2=O)C[C@@](O)(C(=O)CO)C[C@@H]3O[C@H]1C[C@H](N)[C@H](O)[C@H](C)O1 [Doxo, doxorubicin]",Mean survival ± S.D.,[1]; 2 mg/kg doxorubicin per week,13.9 ± 1.59 days
same,HR,[1]; reference treatment: Untreated,0.19
"anti-GPC1 C: anti-GPC1 IgM monoclonal antibody of the invention, heavy chain variable region SEQ ID NO: 13, light chain variable region SEQ ID NO: 14 (antibody, listed as Mus musculus, V domains shown, IgM constant regions) VH: QVQLQQSDAELVKPGASVKISCKASGYTFTDHAIHWVKQKPEQGLEWIGYISPGNGDIKYNEKFKGKATLTADKSSSTAYMQLNSLTSEDSAVYFCKRYAYWGQGTLVTVSA VL: DVLMTQTPLSLPVSLGDQASISCRSSQSIVHSNGNTYLEWYLQKPGQSPKLLIYKVSNRFSGVPDRFSGSGSGTDFTLKISRVEAEDLGVYYCFQGSHVPWTFGGGTKLEIKP",GPC1 protein signal by flow cytometry,[2],no signals corresponding to the presence of the GPC1 protein
same,GPC1 protein signal by immunofluorescence,[3],no signal was observed
same,GPC1 protein recognition by immunofluorescence,[4],specifically recognize the GPC1 protein
same,GPC1 protein signal by immunofluorescence,[5],no signals were obtained
same,ex vivo accumulation in the tumor mass compared to the IgM pool,"[6]; 96 hours after administration, IVIS Lumina",higher accumulation
same,ex vivo immunofluorescence detection in the BXPC3 tumor mass,[6]; 96 hours after injection,still detected
same,time remaining in the tumor,[6]; ex vivo immunofluorescence,at least 96 hours
same,peak of accumulation on the tumor mass,"[6]; i.v., Cy5.5 conjugate, BXPC3 xenograft, imaging every 24 h from 0 to 96 h",72 h
same,signal in the kidneys and liver,[6]; [12],A clear signal
same,tumor mass signal at 96 hours,[6]; [12],maintained up to 96 hours
same,% survival at day 50,[7]; [13],57.1%
same,Mean day of euthanasia/sacrifice,[7]; [13],42.7
same,Day of end point,"[7]; individual mouse, i.p. 38 micrograms twice a week until day 42, experimental endpoint day 50",28 and 29 and 42 and 50 (4×)
same,complete remission of the tumor mass,[7]; observed in one animal,complete remission
same,survival time intervals versus PBS-treated mice,"[7]; p=0.00016, log-rank test",significantly longer
same,"toxicity (weight loss, diarrhea, vomiting, convulsions, dehydration, tachypnea, dyspnea, motionless)",[7]; treated group,no evidence of toxicity
same,GPC1 protein signal by immunofluorescence,[8],a signal corresponding to the GPC1 protein was observed
same,GPC1 protein recognition by flow cytometry,[9],specifically recognize the GPC1 protein
same,tumor cell death by hematoxylin-eosin staining,[10]; 96 hours,clear indicator of cell death
same,"complement system deposition (C1q, C3, C9), macrophage and NK cell recruitment in tumors",[10]; immunofluorescence,"high degree of complement system deposition (C1q, C3, C9), macrophage and NK cell recruitment"
same,GPC1 protein signal by immunofluorescence,[11]; GBM tissue samples from surgical resection,a specific signal was observed
same,GPC1 protein signal by immunofluorescence,[11]; healthy tissues (liver and lung),no signal corresponding to GPC1 protein was detected
